The record followed here is the RNAGym collection of RNA variant scans (doi:10.1073/pnas.2313332121).

B1: TPR t1 (parent)
chain: GACCAAUCUGCCCUCAGAGCUCGAGAACAUCUUCGGAUGCAGAGGAGGCAGGCUUCGGUGGCGCGAUAGCGCCAACGUCCUCAACCUCCAAUGCAUCCCACCACAUGAUGAUGCCUGAAGAGCCUUGGUUUUUUG

In the series the parent is B1. In words: polymerase ribozyme fitness, log enrichment relative to wild type (log ratio); higher = more active; in vitro selection for triplet polymerase activity. In a few lines:
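Only genotypes with ≥10 input reads and ≥1 read per output were kept after Illumina sequencing of input and output libraries. These libraries were PCR-built, transcribed mutants of each subunit of a heterodimeric triplet polymerase ribozyme, each put through one triplicate in vitro selection round with frozen incubation at −7 °C, gel excision of extended constructs, streptavidin-bead capture and RT-PCR. Fitness is a logarithmic ratio of genotype enrichment to wild-type enrichment, from inverse-variance-weighted replicate averages, with the logarithm in base 2.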
As to C8A, the “polymerase ribozyme fitness (log ratio)” value was determined as 0.459. The figure for C8G is 0.574. For U7G G23A, the “polymerase ribozyme fitness (log ratio)” value is -4.28. The figure for C8A A43C G44A C53A C86U G93U is -2.53; for C8G C102U it is -1.57; for U7G G19A G44C C114G G120U it is -3.21.

Regarding C8G C20U A46U G52C A91G, the “polymerase ribozyme fitness (log ratio)” value is -4.53.

Regarding U7G G69C C86U, the “polymerase ribozyme fitness (log ratio)” value was -1.06. As to C8G C12U C97G, the “polymerase ribozyme fitness (log ratio)” value was -3.16. The result for U7C U14C C70U reads -2.11; that for C8G C82A C97A, -4.13; that for U7G A16U A43U C49U C70A C89A U116G, -4.88. The figure for C8G G52U is 0.359; for U7G C49U C56U U78C C94U A111C it is -0.959; for U7G C104A it is -2.23. The result for U7G G35U G57U U87A A121G reads -3.9; that for C8A G48U U59G C73G A105C U112C G120A, -2.35. Regarding C8A C22G G113U C114G, the “polymerase ribozyme fitness (log ratio)” value is -3.52. The result for U7G C56A G57U C89A reads -0.967. As to U7G U32G C98A, the “polymerase ribozyme fitness (log ratio)” value is -5.15.

As for U7C C56G U78C A84U G113C, the “polymerase ribozyme fitness (log ratio)” value is -2.73. The figure for C8A C53U C56A A75G is 0.188; for U7G G52U C64U C123G it is 1.52. As to C8A A37C C101G, the “polymerase ribozyme fitness (log ratio)” value is -1.22. The figure for C8G C80G is -4.19; for C8G A43U it is -0.695. The result for C8A A18C U21G reads -4.13; that for U7G U59A U130G, -0.396.

For the variant C8A C64U A121G, the “polymerase ribozyme fitness (log ratio)” value is 1.81.

Turning to U7G G45A U59G U129A, the “polymerase ribozyme fitness (log ratio)” value was -1.45.

C8G C12G A27U C64U: the “polymerase ribozyme fitness (log ratio)” value is -1.4. The result for C8G C115A reads 0.863; that for C8A C49U, 0.0763; that for U7G G17U C28U A90C U106A, -2.82. In the case of C8A G71A C104A, the “polymerase ribozyme fitness (log ratio)” value was -2.19. The result for C8A C94A A119G reads -0.132. As for U7G C88U, the “polymerase ribozyme fitness (log ratio)” value was -0.443. The figure for U7G G51U G60U A111C is -2.64. The figure for C8G A50C C79U A90U is -1.96. Consider C8G A50C, for which the “polymerase ribozyme fitness (log ratio)” value amounted to 0.0345. In the case of C8A C72A U81G G120U, the “polymerase ribozyme fitness (log ratio)” value was -0.73. U7G G23C C82U C86G G110C: the “polymerase ribozyme fitness (log ratio)” value was -7.53.

Regarding C8A G93C, the “polymerase ribozyme fitness (log ratio)” value worked out at 0.003.

On to C8G G44C C70A A84C C115U, for which the “polymerase ribozyme fitness (log ratio)” value is -5.29. The result for C8A C72G C101G reads -2.08.

Take C8A A16G A43C: the “polymerase ribozyme fitness (log ratio)” value is -1.35.

On to C8G A16U A18U G58C C79A U109A, for which the “polymerase ribozyme fitness (log ratio)” value is -6.59. The result for C8A A41U C49G G61A U81C A100U reads -8.29; that for C8A G60A, -0.104; that for C8G G93U, -0.15.

As to C8A G10A G47A, the “polymerase ribozyme fitness (log ratio)” value is -1.74. The result for C8A C12U C40A reads -0.186; that for C8G A50G U106G G120A, 1.23; that for C8A U112C U125A, 1.71. U7G A41G C53A C72G C79U A90U A111C: the “polymerase ribozyme fitness (log ratio)” value is -2.28. The result for C8G C15U A46C C72U G93A G110A reads -2.41; that for C8A G61C A119G U126G, -2.44; that for U7G G10A C49U U112G, -2.64.

In the case of C8A G58C U59C A105C U132A, the “polymerase ribozyme fitness (log ratio)” value was -2.68.

Consider U7G C56A A84G U133G G135U, for which the “polymerase ribozyme fitness (log ratio)” value was -0.824. The figure for U7G A29U C56A C76U is -1.78; for C8G C12G G60U G93A it is -0.276; for C8A G42A C62A C114U it is -2.59. The result for C8G A43U C88G G110U G120U reads -4.09. The figure for C8G C12G C73U A83G G113C is -2.3. As to U7G A46U G63C C102A C104A A111U G128C, the “polymerase ribozyme fitness (log ratio)” value was -7.59. The result for C8G G58A U96A reads 0.339; that for C8G G110C, -2.74. The figure for C8G G71A C89A C97U G120C is -1.24; for U7G G44U G52C C82G G113A C124U it is -3; for C8G C13U C40G C124G it is 0.821. C8G C15A G39A G52C U59A C89A G117A: the “polymerase ribozyme fitness (log ratio)” value is -2.57. The result for U7G A83U reads -0.221; that for C8G C101A, -0.236. The figure for C8G C22U A43G C88U C97A C99U C101U C102G G110C is -6.9; for C8A G58C it is 0.847; for U7C G48U A50G C89U it is -1.26. Turning to C8G C124A, the “polymerase ribozyme fitness (log ratio)” value amounted to 2.31. With C8G A18U A111G G128A U132C, the “polymerase ribozyme fitness (log ratio)” value was -2.59. As to U7G G120C, the “polymerase ribozyme fitness (log ratio)” value was 0.815.

Consider C8A A29U G69U, for which the “polymerase ribozyme fitness (log ratio)” value was -0.0842. The figure for C8G C56G G63C U126C is -3.33; for U7G C56G C86G U96G it is -2.15; for C8G G61C it is -1.09. The figure for C8G G61A is 0.403; for U7G C40U it is 0.849; for C8A U9G A26G G44A G45U G63U C115A it is -3.15. Take C8G C15U C89G G93A C101U G113C C114U G127C: the “polymerase ribozyme fitness (log ratio)” value was -3.86. Take C8G C20U A84U G122U: the “polymerase ribozyme fitness (log ratio)” value is -0.907. The result for C8G G48U G60U C85U U92A reads -3.06; that for C8G A91G C115U, -0.682; that for C8A A66U C124G, 0.659. The figure for C8A C28A C56U C82U U106A C115A is -2.02; for C8G G52A G63C C94G G113C U131G it is -4.64.

Take C8G A26U A29G: the “polymerase ribozyme fitness (log ratio)” value was -3.46. The figure for C8A C28G G61A is -2.22; for C8G C11G A41C C49A it is -0.887; for C8A G36U G42A C62U it is -2.62.

Regarding C8A G45U C56U A84C A95U, the “polymerase ribozyme fitness (log ratio)” value was -1.21. Consider C8G G35C U131A, for which the “polymerase ribozyme fitness (log ratio)” value was -5.09. Turning to C8G C73U A91G C101G, the “polymerase ribozyme fitness (log ratio)” value is -2.3.

Consider C8G C11G G36U G71C U78G U132A, for which the “polymerase ribozyme fitness (log ratio)” value is -4.02. The figure for C8A U21C C62U A83G G117A is -1.21. Take C8A G69U C88G G128C: the “polymerase ribozyme fitness (log ratio)” value was -3.18. Take C8G A18C A37C G120C: the “polymerase ribozyme fitness (log ratio)” value is 0.00671. The result for C8A U14G U55A C62U U78A A100C reads -1.37. On to C8G G17C C53U, for which the “polymerase ribozyme fitness (log ratio)” value was -2.9. In the case of U7G U129A, the “polymerase ribozyme fitness (log ratio)” value is -0.778.

As to C8G C13A G52C U92A, the “polymerase ribozyme fitness (log ratio)” value was -3.15.

For C8G C20G G63A C124G, the “polymerase ribozyme fitness (log ratio)” value was -4.75. In the case of U7C U21G G45C G71U, the “polymerase ribozyme fitness (log ratio)” value is -2.5. The result for C8G G44C C64U C76A C124G reads -6.22.

Consider C8G G17U, for which the “polymerase ribozyme fitness (log ratio)” value is -0.274. Turning to C8G G19U G48A A50U U54G U96A C114A, the “polymerase ribozyme fitness (log ratio)” value is 0.218. As to C8G G57A U81A G120A, the “polymerase ribozyme fitness (log ratio)” value was found to be 0.685. The figure for C8A C22G C31U G36C G61C is -6.63. Take C8G G48U: the “polymerase ribozyme fitness (log ratio)” value is -0.882.

For the variant U7G A29C C72A C82A G120C, the “polymerase ribozyme fitness (log ratio)” value is -0.586.

Take U7G G42A U81A U109A U130C: the “polymerase ribozyme fitness (log ratio)” value was -5.79. The result for C8G G60U C102U reads -0.641; that for C8G G39A G117U U132A, 0.363. The result for C8A U78C G113C reads -0.875. For C8G A43U U54C C72G C114A A118G, the “polymerase ribozyme fitness (log ratio)” value is -5.83. The result for C8A A37U C104A reads -1.64. The result for C8G G52U C64U C73U U96G reads -1.4. The result for U7G U30A C101U U109A C124A reads -3.51; that for U7C U106C, -0.478; that for U7G G44A C62G A74U C80G G117C, -7.

Turning to C8G A41C G63U C64U G113A A118G, the “polymerase ribozyme fitness (log ratio)” value is -7.5.

As for C8A C13U G36C, the “polymerase ribozyme fitness (log ratio)” value is -0.24.

For the variant C8G C104A, the “polymerase ribozyme fitness (log ratio)” value is -0.951. The result for C8A G19C U59A C82A reads -3.12; that for U7G C12A A43U C73A, -1.44; that for U7G C12A C97U G117C, -3.54.

Take C8G A90C A91U A95G: the “polymerase ribozyme fitness (log ratio)” value is -1.14. The figure for C8G G65C C114U C123A is -7.69; for U7G G71C A111G C115U G120U it is -4.01. The figure for C8G C12G U59G U129C is 0.2; for C8G G48U G113A U126C it is -0.687. The figure for U7G C97G is -3.9. As for C8G G35C, the “polymerase ribozyme fitness (log ratio)” value is -4.29.

With C8G G48U G58C A75U U109C G113U, the “polymerase ribozyme fitness (log ratio)” value is -6.98.

Consider U7G A24U C102G U109A, for which the “polymerase ribozyme fitness (log ratio)” value is -4.85. As to C8G A41G G71A U78G G122U, the “polymerase ribozyme fitness (log ratio)” value was -1.62.

Take U7G C20A G39A C49G G61C A121G: the “polymerase ribozyme fitness (log ratio)” value was -3.89. The figure for U7G C70U G93C is -0.518; for C8G G39A G63U A84U it is -1.03. The figure for U7G C53U C62G C101G C102A G120U G127A is -7.14; for C8A C80U A105C U112G G120C it is -3.09.

With C8A U78C, the “polymerase ribozyme fitness (log ratio)” value stood at 0.0167.

With U7C C89U U109A, the “polymerase ribozyme fitness (log ratio)” value is -4.17. The figure for C8A G39U C64U A111U U116G U129G is -5.99. On to C8A C40G, for which the “polymerase ribozyme fitness (log ratio)” value turned out to be 0.0349. The figure for C8G C56G is 0.255; for C8G C11U C82A U112A it is 0.802; for U7G C53G C115U U116G it is -0.555. Turning to C8A G135A, the “polymerase ribozyme fitness (log ratio)” value was -0.0375. The result for C8A A24U G61U C115U G117A reads -7.42. The figure for U7C G58C A91C is -1.02; for C8G C11U A16C G44C U59C G60A C115G it is -4.64; for C8G G63A C73U U78C C123G it is 0.795. The figure for C8G G39U C70U U78A is -0.697. As to C8G C86A A105C, the “polymerase ribozyme fitness (log ratio)” value was -1.39. The figure for U7G A18U A121U is 0.525; for C8G C22G G47A C70U G77U it is -4.84.

Consider U7C C31U G61C G71U C72G G120U, for which the “polymerase ribozyme fitness (log ratio)” value was -5.19.

On to C8A A41U U112C, for which the “polymerase ribozyme fitness (log ratio)” value came out at 0.774.
